For 6 substances, Neutralizing activity (IC50), HCVpp and Neutralizing activity (IC50), control pseudotype results are on record in patent publication US20100104555A1.

What all share (experiment): cell-based or functional assay
In experiment [1] the target is E1E2 Env of HCV isolate OH8 (genotype 1b) on HCVpp (hepatitis C virus genotype 1b, isolate OH8).
Experiment [2] has as its target E1E2 Env of HCV isolate UKN4.21.16 (genotype 4) on HCVpp (hepatitis C virus genotype 4, isolate UKN4.21.16).
Experiment [3] addresses E1E2 Env of HCV isolate UKN2B1.1 (genotype 2b) on HCVpp (hepatitis C virus genotype 2b, isolate UKN2B1.1).
Experiment [4] deals with E1E2 Env of HCV isolate J6 (genotype 2a) on HCVpp (hepatitis C virus genotype 2a, isolate J6) (UniProt P26660).
Chain of E1E2 Env of HCV isolate J6 (genotype 2a) on HCVpp (hepatitis C virus genotype 2a, isolate J6) (P26660 192-750 limits assumed): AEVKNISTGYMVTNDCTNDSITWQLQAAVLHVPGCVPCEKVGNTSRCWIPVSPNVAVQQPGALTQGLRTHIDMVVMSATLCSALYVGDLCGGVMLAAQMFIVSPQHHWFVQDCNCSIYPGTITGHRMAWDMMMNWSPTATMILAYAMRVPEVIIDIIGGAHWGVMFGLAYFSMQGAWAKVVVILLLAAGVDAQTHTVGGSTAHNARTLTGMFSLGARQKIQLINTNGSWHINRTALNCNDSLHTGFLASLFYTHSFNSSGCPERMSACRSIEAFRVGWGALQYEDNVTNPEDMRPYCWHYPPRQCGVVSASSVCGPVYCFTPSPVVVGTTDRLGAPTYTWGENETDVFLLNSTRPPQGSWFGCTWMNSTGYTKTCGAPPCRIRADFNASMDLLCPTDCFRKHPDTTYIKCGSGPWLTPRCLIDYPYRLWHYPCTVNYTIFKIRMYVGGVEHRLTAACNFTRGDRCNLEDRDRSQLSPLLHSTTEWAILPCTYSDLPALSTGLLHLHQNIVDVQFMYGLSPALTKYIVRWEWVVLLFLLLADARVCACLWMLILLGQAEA
The target of experiment [5] is E1E2 Env of HCV isolate UKN5.15.7 (genotype 5) on HCVpp (hepatitis C virus genotype 5, isolate UKN5.15.7).
Experiment [6] deals with E1E2 Env of HCV isolate UKN1B12.16 (genotype 1b) on HCVpp (hepatitis C virus genotype 1b, isolate UKN1B12.16).
Experiment [7] deals with VSV (control pseudotype virus).
The target in experiment [8] is E1E2 Env of HCV isolate UKN2A1.2 (genotype 2a) on HCVpp (hepatitis C virus genotype 2a, isolate UKN2A1.2).
The target in experiment [9] is E1E2 Env of HCV isolate H (genotype 1a) on HCVpp (hepatitis C virus genotype 1a, isolate H).

Bounds are passed on as bounds.

Chain of MAb AR1B (antibody) (VH): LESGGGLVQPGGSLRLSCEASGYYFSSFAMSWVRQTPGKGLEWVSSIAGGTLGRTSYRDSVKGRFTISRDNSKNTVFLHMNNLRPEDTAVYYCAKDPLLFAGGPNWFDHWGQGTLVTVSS
Chain of MAb AR1B (antibody) (VL): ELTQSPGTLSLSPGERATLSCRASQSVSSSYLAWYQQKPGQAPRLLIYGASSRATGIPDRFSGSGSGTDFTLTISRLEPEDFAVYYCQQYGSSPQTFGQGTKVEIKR
Chain of MAb AR3C (antibody) (VH): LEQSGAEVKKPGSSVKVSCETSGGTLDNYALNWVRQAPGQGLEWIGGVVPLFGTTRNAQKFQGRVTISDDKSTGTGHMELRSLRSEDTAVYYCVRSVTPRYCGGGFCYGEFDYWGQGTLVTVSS
Chain of MAb AR3C (antibody) (VL): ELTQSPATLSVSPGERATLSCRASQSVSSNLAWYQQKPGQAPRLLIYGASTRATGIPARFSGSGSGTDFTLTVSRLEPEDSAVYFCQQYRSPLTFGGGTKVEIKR
Chain of MAb AR3B (antibody) (VH): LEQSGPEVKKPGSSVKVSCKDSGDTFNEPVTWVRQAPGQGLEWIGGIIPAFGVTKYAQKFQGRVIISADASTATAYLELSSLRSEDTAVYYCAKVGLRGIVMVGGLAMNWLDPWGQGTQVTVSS
Chain of MAb AR3B (antibody) (VL): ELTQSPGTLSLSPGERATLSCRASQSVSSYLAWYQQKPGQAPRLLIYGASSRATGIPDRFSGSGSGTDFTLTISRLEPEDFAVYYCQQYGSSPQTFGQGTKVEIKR
Chain of MAb AR2A (antibody) (VH): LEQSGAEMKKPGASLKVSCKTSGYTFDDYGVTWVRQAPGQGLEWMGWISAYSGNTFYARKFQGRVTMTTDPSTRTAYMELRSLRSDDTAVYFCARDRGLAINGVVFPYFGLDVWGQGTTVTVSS
Chain of MAb AR2A (antibody) (VL): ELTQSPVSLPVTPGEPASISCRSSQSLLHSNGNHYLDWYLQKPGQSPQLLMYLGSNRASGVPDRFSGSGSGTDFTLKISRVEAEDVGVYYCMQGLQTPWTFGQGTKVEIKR

Turning to MAb AR2A (antibody), the Neutralizing activity (IC50), HCVpp was above 50 µg/mL in [1]; 1 µg/mL in [2]; 10 µg/mL in experiment [3]; above 50 µg/mL in experiment [4]; 10 µg/mL in experiment [5]; above 50 µg/mL in experiment [6]. In addition, the Neutralizing activity (IC50), HCVpp in experiment [8] and in experiment [9] was 5 µg/mL in each case. This substance had a Neutralizing activity (IC50), control pseudotype in experiment [7] above 50 µg/mL.

Take MAb AR3B (antibody): the Neutralizing activity (IC50), HCVpp in experiment [1] was 5 µg/mL; in [2], 1 µg/mL; in experiment [3] it was 10 µg/mL; in [4], 10 µg/mL; in experiment [5] it was 1 µg/mL; in experiment [6] it was 1 µg/mL. Also, the Neutralizing activity (IC50), HCVpp in experiment [8] came to 5 µg/mL; in experiment [9] it was 1 µg/mL. Moreover, in [7], the Neutralizing activity (IC50), control pseudotype is above 50 µg/mL.

MAb AR3D (antibody): the Neutralizing activity (IC50), HCVpp in experiment [1] came out at 5 µg/mL; in [2], 1 µg/mL; in experiment [3], 25 µg/mL; in [4], 50 µg/mL; in experiment [5], 10 µg/mL; in [6], 1 µg/mL. In addition, the results for the Neutralizing activity (IC50), HCVpp in experiment [8] and in [9] were 25 µg/mL and 1 µg/mL, respectively. In experiment [7], the Neutralizing activity (IC50), control pseudotype was above 50 µg/mL.

With MAb AR1B (antibody), the Neutralizing activity (IC50), HCVpp in experiment [1], in [2], in [3], in experiment [4], in [5] and in experiment [6] was above 50 µg/mL in each case. The Neutralizing activity (IC50), HCVpp in experiment [8] was above 50 µg/mL. This substance also registered a Neutralizing activity (IC50), control pseudotype in [7] above 50 µg/mL.

For the substance MAb AR1A (antibody), the Neutralizing activity (IC50), HCVpp in experiment [1], in experiment [2], in experiment [3], in experiment [4], in experiment [5] and in experiment [6] was above 50 µg/mL each time. Besides, the Neutralizing activity (IC50), HCVpp in experiment [8] was above 50 µg/mL. In experiment [7], the Neutralizing activity (IC50), control pseudotype was above 50 µg/mL.

In the case of MAb AR3C (antibody), the Neutralizing activity (IC50), HCVpp in [1] worked out at 5 µg/mL; in experiment [2] it was 1 µg/mL; in experiment [3] it was 10 µg/mL; in experiment [4] it was 10 µg/mL; in experiment [5], 1 µg/mL; in [6], 1 µg/mL. Further, the Neutralizing activity (IC50), HCVpp was determined as 10 µg/mL in [8] and 1 µg/mL in [9]. In addition, the Neutralizing activity (IC50), control pseudotype in experiment [7] is above 50 µg/mL.
